This experiment addresses NRR-containing SynNotch receptor (Homo sapiens, UniProt P46531, chimera). Nature of the experiment: immunostaining of cells or tissue.

Sequence of NRR-containing SynNotch receptor (P46531 whole entry, looked up, change not shown): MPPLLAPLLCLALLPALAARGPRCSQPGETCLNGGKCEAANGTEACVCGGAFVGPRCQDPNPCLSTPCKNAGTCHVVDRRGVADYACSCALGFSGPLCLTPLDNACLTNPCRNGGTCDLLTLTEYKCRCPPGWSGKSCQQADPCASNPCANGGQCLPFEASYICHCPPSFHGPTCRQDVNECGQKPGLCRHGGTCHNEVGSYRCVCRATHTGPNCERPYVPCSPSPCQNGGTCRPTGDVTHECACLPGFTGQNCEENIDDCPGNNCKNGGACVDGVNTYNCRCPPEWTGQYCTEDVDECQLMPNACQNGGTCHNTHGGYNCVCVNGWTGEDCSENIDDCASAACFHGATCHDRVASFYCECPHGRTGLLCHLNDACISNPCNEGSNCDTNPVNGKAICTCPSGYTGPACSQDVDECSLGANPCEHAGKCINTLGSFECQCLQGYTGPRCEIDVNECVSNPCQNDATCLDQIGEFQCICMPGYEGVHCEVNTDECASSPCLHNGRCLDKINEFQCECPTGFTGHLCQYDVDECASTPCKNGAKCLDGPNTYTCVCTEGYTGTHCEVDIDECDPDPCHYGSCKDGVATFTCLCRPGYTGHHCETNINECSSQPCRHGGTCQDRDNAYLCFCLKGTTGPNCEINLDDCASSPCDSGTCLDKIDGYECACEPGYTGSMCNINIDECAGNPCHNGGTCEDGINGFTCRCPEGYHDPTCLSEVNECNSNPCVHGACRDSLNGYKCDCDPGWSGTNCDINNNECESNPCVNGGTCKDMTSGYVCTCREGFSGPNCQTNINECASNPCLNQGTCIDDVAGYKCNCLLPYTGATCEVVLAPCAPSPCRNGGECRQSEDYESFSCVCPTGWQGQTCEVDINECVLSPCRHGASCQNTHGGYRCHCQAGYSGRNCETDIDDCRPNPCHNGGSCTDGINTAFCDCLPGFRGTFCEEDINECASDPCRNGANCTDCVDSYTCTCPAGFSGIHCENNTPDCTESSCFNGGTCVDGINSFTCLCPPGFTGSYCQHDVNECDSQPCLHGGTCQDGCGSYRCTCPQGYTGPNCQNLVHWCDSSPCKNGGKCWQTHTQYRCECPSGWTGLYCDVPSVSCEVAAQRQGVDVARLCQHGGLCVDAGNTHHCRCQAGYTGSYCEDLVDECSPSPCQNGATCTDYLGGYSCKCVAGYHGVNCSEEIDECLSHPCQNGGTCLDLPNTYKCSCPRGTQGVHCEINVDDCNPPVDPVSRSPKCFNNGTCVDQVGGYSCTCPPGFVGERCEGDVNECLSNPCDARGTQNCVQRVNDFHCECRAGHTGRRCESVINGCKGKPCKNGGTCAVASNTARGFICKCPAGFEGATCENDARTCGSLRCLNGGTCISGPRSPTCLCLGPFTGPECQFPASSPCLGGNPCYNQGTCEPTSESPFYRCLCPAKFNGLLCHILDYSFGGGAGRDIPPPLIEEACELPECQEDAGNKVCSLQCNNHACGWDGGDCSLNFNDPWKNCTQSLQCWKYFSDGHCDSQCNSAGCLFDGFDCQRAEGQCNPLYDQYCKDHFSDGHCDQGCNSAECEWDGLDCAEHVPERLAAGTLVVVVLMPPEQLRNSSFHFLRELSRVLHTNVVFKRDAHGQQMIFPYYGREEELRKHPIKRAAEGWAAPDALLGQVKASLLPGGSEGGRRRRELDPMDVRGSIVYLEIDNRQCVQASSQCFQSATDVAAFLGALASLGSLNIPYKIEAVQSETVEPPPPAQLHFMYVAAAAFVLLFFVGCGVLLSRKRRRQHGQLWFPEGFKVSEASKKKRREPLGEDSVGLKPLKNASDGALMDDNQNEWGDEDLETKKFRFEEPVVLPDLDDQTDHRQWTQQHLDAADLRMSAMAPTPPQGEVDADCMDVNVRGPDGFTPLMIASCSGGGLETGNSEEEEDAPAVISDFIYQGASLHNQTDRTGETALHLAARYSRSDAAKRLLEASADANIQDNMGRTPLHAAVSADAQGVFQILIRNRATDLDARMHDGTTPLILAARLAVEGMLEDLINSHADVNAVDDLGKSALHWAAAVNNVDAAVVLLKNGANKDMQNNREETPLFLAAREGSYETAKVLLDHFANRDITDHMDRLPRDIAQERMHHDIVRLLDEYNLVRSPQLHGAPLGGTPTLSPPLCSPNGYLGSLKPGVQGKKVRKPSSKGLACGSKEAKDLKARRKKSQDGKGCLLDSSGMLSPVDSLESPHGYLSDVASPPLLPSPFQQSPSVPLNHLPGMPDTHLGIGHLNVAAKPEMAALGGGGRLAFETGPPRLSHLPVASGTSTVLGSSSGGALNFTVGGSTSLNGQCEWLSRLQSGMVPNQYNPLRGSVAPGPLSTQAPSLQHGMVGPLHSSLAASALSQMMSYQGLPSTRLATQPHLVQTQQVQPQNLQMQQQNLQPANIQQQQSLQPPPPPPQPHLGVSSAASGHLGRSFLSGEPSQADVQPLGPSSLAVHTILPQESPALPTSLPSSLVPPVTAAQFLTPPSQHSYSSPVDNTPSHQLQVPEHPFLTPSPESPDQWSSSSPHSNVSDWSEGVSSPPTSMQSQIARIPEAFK

B1: soluble anti-NRR scFv (scFv, V domains shown)
VH: EVQLVESGGGLVQPGGSLRLSCAASGFTFSSYWIHWVRQAPGKGLEWVARINPPNRSNQYADSVKGRFTISADTSKNTAYLQMNSLRAEDTAVYYCARGSGFRWVMDYWGQGTLVTVSS
VL: DIQMTQSPSSLSASVGDRVTITCRASQDVSTAVAWYQQKPGKAPKLLIYSASFLYSGVPSRFSGSGSGTDFTLTISSLQPEDFATYYCQQFYTTPSTFGQGTKVEIK
With B1, the binding result is given as “binds”.

The values are drawn from doi:10.1101/2022.05.01.490205 (bioRxiv, 2022).
